The text below walks through data of IntAct's records for PubMed 31515488.

The labels stand for the following.
B1: Protein FAM9B (Homo sapiens), Q8IZU0 (parent)
chain: MAAWGKKHAGKDPVRDECEERNRFTETREEDVTDEHGEREPFAETDEHTGANTKKPEDTAEDLTAKRKRMKMDKTCSKTKNKSKHALRKKQLKRQKRDYIHSLKLLNVLEEYITDEQKEEEEEEGEEEELIRIFQEQQKKWQQYRSVRRERLKEMKLLRDQFVKALEDFEDLCDRVFSDEDSELDN
partner: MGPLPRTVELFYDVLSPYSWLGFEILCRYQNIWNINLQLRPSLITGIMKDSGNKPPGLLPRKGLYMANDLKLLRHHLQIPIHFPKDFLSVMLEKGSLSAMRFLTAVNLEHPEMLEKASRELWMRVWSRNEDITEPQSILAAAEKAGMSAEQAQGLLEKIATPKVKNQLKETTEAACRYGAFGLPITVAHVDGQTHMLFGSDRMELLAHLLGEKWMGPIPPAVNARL
B2: Calcium-binding and coiled-coil domain-containing protein 2 (Homo sapiens), Q13137 (parent)
chain: MEETIKDPPTSAVLLDHCHFSQVIFNSVEKFYIPGGDVTCHYTFTQHFIPRRKDWIGIFRVGWKTTREYYTFMWVTLPIDLNNKSAKQQEVQFKAYYLPKDDEYYQFCYVDEDGVVRGASIPFQFRPENEEDILVVTTQGEVEEIEQHNKELCKENQELKDSCISLQKQNSDMQAELQKKQEELETLQSINKKLELKVKEQKDYWETELLQLKEQNQKMSSENEKMGIRVDQLQAQLSTQEKEMEKLVQGDQDKTEQLEQLKKENDHLFLSLTEQRKDQKKLEQTVEQMKQNETTAMKKQQELMDENFDLSKRLSENEIICNALQRQKERLEGENDLLKRENSRLLSYMGLDFNSLPYQVPTSDEGGARQNPGLAYGNPYSGIQESSSPSPLSIKKCPICKADDICDHTLEQQQMQPLCFNCPICDKIFPATEKQIFEDHVFCHSL
partner: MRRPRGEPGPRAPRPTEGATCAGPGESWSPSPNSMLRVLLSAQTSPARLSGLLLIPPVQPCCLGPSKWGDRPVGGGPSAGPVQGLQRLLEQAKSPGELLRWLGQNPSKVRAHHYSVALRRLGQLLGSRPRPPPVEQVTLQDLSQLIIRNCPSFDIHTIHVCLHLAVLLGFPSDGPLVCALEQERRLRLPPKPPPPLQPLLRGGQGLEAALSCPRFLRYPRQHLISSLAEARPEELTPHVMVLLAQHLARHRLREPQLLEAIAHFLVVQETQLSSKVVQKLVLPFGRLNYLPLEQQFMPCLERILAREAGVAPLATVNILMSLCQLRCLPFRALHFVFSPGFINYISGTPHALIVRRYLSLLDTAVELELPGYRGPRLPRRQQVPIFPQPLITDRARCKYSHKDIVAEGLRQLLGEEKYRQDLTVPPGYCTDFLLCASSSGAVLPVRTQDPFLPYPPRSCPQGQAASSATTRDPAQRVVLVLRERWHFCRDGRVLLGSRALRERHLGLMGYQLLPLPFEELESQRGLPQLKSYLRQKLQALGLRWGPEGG
B3: Syntenin-2 (Homo sapiens), Q9H190 (parent)
chain: MSSLYPSLEDLKVDQAIQAQVRASPKMPALPVQATAISPPPVLYPNLAELENYMGLSLSSQEVQESLLQIPEGDSTAVSGPGPGQMVAPVTGYSLGVRRAEIKPGVREIHLCKDERGKTGLRLRKVDQGLFVQLVQANTPASLVGLRFGDQLLQIDGRDCAGWSSHKAHQVVKKASGDKIVVVVRDRPFQRTVTMHKDSMGHVGFVIKKGKIVSLVKGSSAARNGLLTNHYVCEVDGQNVIGLKDKKIMEILATAGNVVTLTIIPSVIYEHMVKKLPPVLLHHTMDHSIPDA
partner: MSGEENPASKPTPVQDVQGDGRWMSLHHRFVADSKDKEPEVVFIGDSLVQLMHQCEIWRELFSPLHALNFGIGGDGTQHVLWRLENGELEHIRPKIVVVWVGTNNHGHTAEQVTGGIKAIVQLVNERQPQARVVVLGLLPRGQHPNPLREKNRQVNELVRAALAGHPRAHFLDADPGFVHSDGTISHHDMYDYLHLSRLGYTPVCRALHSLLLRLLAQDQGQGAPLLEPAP
B4: Zinc finger protein RFP (Homo sapiens), P14373 (parent)
chain: MASGSVAECLQQETTCPVCLQYFAEPMMLDCGHNICCACLARCWGTAETNVSCPQCRETFPQRHMRPNRHLANVTQLVKQLRTERPSGPGGEMGVCEKHREPLKLYCEEDQMPICVVCDRSREHRGHSVLPLEEAVEGFKEQIQNQLDHLKRVKDLKKRRRAQGEQARAELLSLTQMEREKIVWEFEQLYHSLKEHEYRLLARLEELDLAIYNSINGAITQFSCNISHLSSLIAQLEEKQQQPTRELLQDIGDTLSRAERIRIPEPWITPPDLQEKIHIFAQKCLFLTESLKQFTEKMQSDMEKIQELREAQLYSVDVTLDPDTAYPSLILSDNLRQVRYSYLQQDLPDNPERFNLFPCVLGSPCFIAGRHYWEVEVGDKAKWTIGVCEDSVCRKGGVTSAPQNGFWAVSLWYGKEYWALTSPMTALPLRTPLQRVGIFLDYDAGEVSFYNVTERCHTFTFSHATFCGPVRPYFSLSYSGGKSAAPLIICPMSGIDGFSGHVGNHGHSMETSP
partner: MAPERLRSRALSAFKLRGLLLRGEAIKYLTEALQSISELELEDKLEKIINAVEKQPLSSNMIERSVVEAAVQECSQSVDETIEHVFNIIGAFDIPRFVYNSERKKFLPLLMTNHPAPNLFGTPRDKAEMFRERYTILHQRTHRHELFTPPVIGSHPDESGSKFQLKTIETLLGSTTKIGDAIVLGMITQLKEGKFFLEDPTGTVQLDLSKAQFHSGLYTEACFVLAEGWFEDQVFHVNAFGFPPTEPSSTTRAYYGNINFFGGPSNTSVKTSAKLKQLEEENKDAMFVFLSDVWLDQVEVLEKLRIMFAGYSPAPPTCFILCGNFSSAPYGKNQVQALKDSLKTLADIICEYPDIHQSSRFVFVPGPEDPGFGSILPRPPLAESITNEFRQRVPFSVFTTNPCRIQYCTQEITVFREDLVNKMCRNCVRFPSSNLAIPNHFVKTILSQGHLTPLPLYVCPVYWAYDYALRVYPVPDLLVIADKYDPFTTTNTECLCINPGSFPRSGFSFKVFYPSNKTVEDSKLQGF
B5: Nanos homolog 2 (Homo sapiens), P60321 (parent)
chain: MQLPPFDMWKDYFNLSQVVWALIASRGQRLETQEIEEPSPGPPLGQDQGLGAPGANGGLGTLCNFCKHNGESRHVYSSHQLKTPDGVVVCPILRHYVCPVCGATGDQAHTLKYCPLNGGQQSLYRRSGRNSAGRRVKR

The variants in one assay derive from B1. To be noted: with gstk1_human GSTK1, Q9Y2Q3.
In the case of R23H, the “effect of a mutation on the interaction” value is “with no effect”.

In another assay the parent is B2. The settings on record: with fastk_human FASTK.
For V248A, the “effect of a mutation on the interaction” value is “with no effect”.

The next assay covers variants of B3. The settings on record: with pa1b3_human PAFAH1B3, Q15102.
As to V182M, the “effect of a mutation on the interaction” value is recorded as “with no effect”.
Regarding G242R, the “effect of a mutation on the interaction” value is listed as “with no effect”.
Still for that read-out and setting: then G225R, with “with no effect”.

Variants of B4 are the subject of a further assay. The settings on record: with dpoe2_human POLE2, P56282.
As to N355S, the “effect of a mutation on the interaction” value is “with no effect”.

Variants of B5 are the subject of the next assay. The settings on record: with magac_human MAGEA12, P43365.
Chain of magac_human MAGEA12, P43365 (P43365 whole entry): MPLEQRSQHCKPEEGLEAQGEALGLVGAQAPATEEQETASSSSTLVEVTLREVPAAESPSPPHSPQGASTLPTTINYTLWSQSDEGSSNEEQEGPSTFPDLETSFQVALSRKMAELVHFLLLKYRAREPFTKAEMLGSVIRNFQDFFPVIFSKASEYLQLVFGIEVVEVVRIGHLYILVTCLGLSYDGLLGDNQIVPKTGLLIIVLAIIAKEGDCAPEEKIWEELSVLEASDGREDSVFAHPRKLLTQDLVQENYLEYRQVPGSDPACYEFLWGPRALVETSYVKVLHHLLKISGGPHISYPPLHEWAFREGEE
In the case of H68Q, the “effect of a mutation on the interaction” value is listed as “with no effect”.
On the same count and under the same terms, next, R26Q: “with no effect”; F13L: “with no effect”.

The variants in another assay derive from B5. The settings on record: with ccdb1_human CCNDBP1, O95273.
Chain of ccdb1_human CCNDBP1, O95273 (O95273 whole entry): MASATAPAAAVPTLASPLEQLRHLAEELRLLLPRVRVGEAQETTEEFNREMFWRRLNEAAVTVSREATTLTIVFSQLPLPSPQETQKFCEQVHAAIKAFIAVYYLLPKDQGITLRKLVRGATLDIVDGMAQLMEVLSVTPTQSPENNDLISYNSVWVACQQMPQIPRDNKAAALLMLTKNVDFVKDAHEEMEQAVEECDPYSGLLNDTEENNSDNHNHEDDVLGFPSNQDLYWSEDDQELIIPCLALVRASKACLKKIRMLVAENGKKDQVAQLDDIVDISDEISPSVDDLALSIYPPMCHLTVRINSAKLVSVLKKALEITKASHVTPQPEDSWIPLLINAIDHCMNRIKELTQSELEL
In the case of H68Q, the “effect of a mutation on the interaction” value was “with no effect”.
On the same count and under the same terms, next, R26Q: “with no effect”; F13L: “with no effect”.
